From patent US20050256058

T1: Cbz-Ala-Ala-AAsn-CH═CH-COOEt
T1 chain: AAN

T2: Cbz-Ala-Ala-AAsn-CH═CH-CON(Bzl)-1-CH2-Napth
T2 chain: AAN

T3: Cbz-Ala-Ala-AAsn-CH═CH-CON(Bzl)2
T3 chain: AAN

T4: Cbz-Ala-Ala-AAsn-CH═CH-CON(Bzl)-2-CH2-Napth
T4 chain: AAN

T5: Cbz-Ala-Ala-AAsn-CH═CH-CO-indoline
T5 chain: AAN

T6: PhPr-Leu-ALys-CH═CH-COOEt
T6 chain: LK

T7: Cbz-Ala-Ala-AAsn-CH═CH-CONHCH2CH2Ph
T7 chain: AAN

T8: PhPr-Leu-AOrn-CH═CH-COOEt
T8 chain: LX

T9: Cbz-Ala-Ala-AAsn-CH═CH-CON(CH3)Bzl
T9 chain: AAN

B1: schistosome legumain SmAE (Schistosoma mansoni asparaginyl endopeptidase) (protein)
chain: VSDNNKWAVLVAGSNGYPNYRHQADVCHAYHVLRSKGIKPEHIITMMYDDIAYNLMNPFPGKLFNDYNHKDWYEGVVIDYRGKNVNSKTFLKVLKGDKSAGGKVLKSGKNDDVFIYFTDHGAPGLIAFPDDELYAKEFMSTLKYLHSHKRYSKLVIYIEANESGSMFQQILPSNLSIYATTAANSTECSYSTFCGDPTITTCLADLYSYNWIVDSQTHHLTQRTLDQQYKEVKRETDLSHVQRYGDTRMGKLYVSEFQGS
B2: Caspase-3 (protein)
chain: SGISLDNSYKMDYPEMGLCIIINNKNFHKSTGMTSRSGTDVDAANLRETFRNLKYEVRNKNDLTREEIVELMRDVSKEDHSKRSSFVCVLLSHGEEGIIFGTNGPVDLKKITNFFRGDRCRSLTGKPKLFIIQACRGTELDCGIETDSGVDDDMACHKIPVEADFLYAYSTAPGYYSWRNSKDGSWFIQSLCAMLKQYADKLEFMHILTRVNRKVATEFESFSFDATFHAKKQIPCIVSMLTKELYFYH
B3: Caspase-6 (protein)
chain: AFYKREMFDPAEKYKMDHRRRGIALIFNHERFFWHLTLPERRGTCADRDNLTRRFSDLGFEVKCFNDLKAEELLLKIHEVSTVSHADADCFVCVFLSHGEGNHIYAYDAKIEIQTLTGLFKGDKCHSLVGKPKIFIIQACRGNQHDVPVIPLDVVDNQTEKLDTNITEVDAASVYTLPAGADFLMCYSVAEGYYSHRETVNGSWYIQDLCEMLGKYGSSLEFTELLTLVNRKVSQRRVDFCKDPSAIGKKQVPCFASMLTKKLHFFPKSN
B4: Caspase-8 (protein)
chain: SESQTLDKVYQMKSKPRGYCLIINNHNFAKAREKVPKLHSIRDRNGTHLDAGALTTTFEELHFEIKPHDDCTVEQIYEILKIYQLMDHSNMDCFICCILSHGDKGIIYGTDGQEAPIYELTSQFTGLKCPSLAGKPKVFFIQACQGDNYQKGIPVETDSEEQPYLEMDLSSPQTRYIPDEADFLLGMATVNNCVSYRNPAEGTWYIQSLCQSLRERCPRGDDILTILTEVNYEVSNKDDKKNMGKQMPQPTFTLRKKLVFPSD
B5: calpain I from porcine erythrocytes (protein)
chain: MAEEVITPVYCTGVSAQVQKLRAKELGLGRHENAIKYLGQDYEQLRAHCLQSGSLFRDEAFPPVPQSLGFKELGPNSSKTYGVKWKRPTELFSNPQFIVDGATRTDICQGALGDCWLLAAIASLTLNDTLLHRVVPHGQSFQNGYAGIFHFQLWQFGEWVDVVVDDLLPTKDGKLVFVHSAQGNEFWSALLEKAYAKVNGSYEALSGGSTSEGFEDFTGGVTEWYELRKAPSDLYSIILKALERGSLLGCSIDISSVLDMEAVTFKKLVKGHAYSVTGAKQVNYQGQMVNLIRMRNPWGEVEWTGAWSDGSSEWNGVDPYQRDQLRVRMEDGEFWMSFRDFLREFTRLEICNLTPDALKSQRVRNWNTTLYEGTWRRGSTAGGCRNYPATFWVNPQFKIRLEETDDPEDDYGGRESGCSFVLALMQKHRRRERRFGRDMETIGFAVYEVPPELVGQPVHLKRDFFLANASRARSEQFINLREVSTRFRLPPGEYVVVPSTFEPNKEGDFVLRFFSEKKAGTQELDDQVQAILPDEQVLSEEEIDENFKALFRQLAGEDMEISVRELRTILNRIISKHKDLRTKGFSLESCRSMVNLMDRDGNGKLGLVEFNILWNRIRNYLSIFRKFDLDKSGSMSAYEMRMAIESAGFKLNKKLFELIITRYSEPDLAVDFDNFVCCLVRLETMFRFFKTLDTDLDGVVTFDLFKWLQLTMFA
B6: Papain (protein)
chain: IPEYVDWRQKGAVTPVKNQGSCGSCWAFSAVVTIEGIIKIRTGNLNEYSEQELLDCDRRSYGCNGGYPWSALQLVAQYGIHYRNTYPYEGVQRYCRSREKGPYAAKTDGVRQVQPYNEGALLYSIANQPVSVVLEAAGKDFQLYRGGIFVGPCGNKVDHAVAAVGYGPNYILIKNSWGTGWGENGYIRIKRGTGNSYGVCGLYTSSFYPVKN

Experiments:
[1] = molecular target: T1, Cbz-Ala-Ala-AAsn-CH═CH-COOEt
[2] = molecular target: T2, Cbz-Ala-Ala-AAsn-CH═CH-CON(Bzl)-1-CH2-Na …
[3] = molecular target: T3, Cbz-Ala-Ala-AAsn-CH═CH-CON(Bzl)2
[4] = molecular target: T4, Cbz-Ala-Ala-AAsn-CH═CH-CON(Bzl)-2-CH2-Na …
[5] = molecular target: T5, Cbz-Ala-Ala-AAsn-CH═CH-CO-indoline
[6] = molecular target: T6, PhPr-Leu-ALys-CH═CH-COOEt
[7] = molecular target: T7, Cbz-Ala-Ala-AAsn-CH═CH-CONHCH2CH2Ph
[8] = molecular target: T8, PhPr-Leu-AOrn-CH═CH-COOEt
[9] = molecular target: T9, Cbz-Ala-Ala-AAsn-CH═CH-CON(CH3)Bzl

Row | Protein | kobs/[I] [1] | kobs/[I] [2] | kobs/[I] [3] | kobs/[I] [4] | kobs/[I] [5] | kobs/[I] [6] | kobs/[I] [7] | kobs/[I] [8] | kobs/[I] [9]
1 | B1 | 17400 M⁻¹ s⁻¹ | 6180 M⁻¹ s⁻¹ | 5800 M⁻¹ s⁻¹ | 6100 M⁻¹ s⁻¹ |  |  |  |  | 
2 | B2 | NI |  | NI |  | NI | NI | NI | NI | NI
3 | B3 | NI |  | NI |  | NI | NI | NI | NI | NI
4 | B4 | NI |  | NI |  | NI | NI | NI | NI | NI
5 | B5 | NI |  | NI |  | NI | NI | NI | NI | NI
6 | B6 | NI |  | 1 M⁻¹ s⁻¹ |  | NI | NI | 12 M⁻¹ s⁻¹ | NI | NI
